Source: PMC11447106 (Clinical and Translational Medicine, 2024)
Numbering of substitutions follows the chain as printed. Names may count otherwise.

Experiments:
cisplatin IC50 in cells = conditions: glycan lost; control: NCI-H1299 NRF2-WT cells
[1] = H2O2-induced ARE luciferase activity; conditions: glycan lost; control: NCI-H1299 NRF2-WT cells + H2O2
[2] = NRF2 level in xenografts, IHC and WB; conditions: glycan lost; control: NCI-H1299 NRF2-WT xenografts
[3] = RT-PCR of NRF2 target genes in xenografts; conditions: glycan lost; control: NCI-H1299 NRF2-WT xenografts
[4] = endogenous NRF2 stability by WB, knock-in cells; conditions: glycan lost; control: NCI-H1299 NRF2-WT cells
[5] = H2O2-induced nuclear translocation, fractionation; conditions: glycan lost; control: NCI-H1299 NRF2-WT cells + H2O2
[6] = xenograft growth under cisplatin 1.5 or 3.0 mg/kg; conditions: glycan lost; control: NCI-H1299 NRF2-WT xenografts + cisplatin
[7] = CHX chase, Flag-NRF2 remaining; NCI-H1299, HEK293T; conditions: glycan lost; control: Flag-NRF2WT
[8] = WB of NRF2 after OGT KD or overexpression; conditions: glycan lost; control: control NCI-H1299 cells
GST-OGT^WT = biological target: T1, GST-OGT^WT (UniProt O15294-3 1-1036); test: pull-down; in vitro GST pull-down; GST-OGT^WT or GST-OGT^T444E with His-NRF2; conditions: both partners purified
T1 construct: OGT, wild type; The printed Thr444 fits the 1036-residue isoform
T1 sequence (looked up): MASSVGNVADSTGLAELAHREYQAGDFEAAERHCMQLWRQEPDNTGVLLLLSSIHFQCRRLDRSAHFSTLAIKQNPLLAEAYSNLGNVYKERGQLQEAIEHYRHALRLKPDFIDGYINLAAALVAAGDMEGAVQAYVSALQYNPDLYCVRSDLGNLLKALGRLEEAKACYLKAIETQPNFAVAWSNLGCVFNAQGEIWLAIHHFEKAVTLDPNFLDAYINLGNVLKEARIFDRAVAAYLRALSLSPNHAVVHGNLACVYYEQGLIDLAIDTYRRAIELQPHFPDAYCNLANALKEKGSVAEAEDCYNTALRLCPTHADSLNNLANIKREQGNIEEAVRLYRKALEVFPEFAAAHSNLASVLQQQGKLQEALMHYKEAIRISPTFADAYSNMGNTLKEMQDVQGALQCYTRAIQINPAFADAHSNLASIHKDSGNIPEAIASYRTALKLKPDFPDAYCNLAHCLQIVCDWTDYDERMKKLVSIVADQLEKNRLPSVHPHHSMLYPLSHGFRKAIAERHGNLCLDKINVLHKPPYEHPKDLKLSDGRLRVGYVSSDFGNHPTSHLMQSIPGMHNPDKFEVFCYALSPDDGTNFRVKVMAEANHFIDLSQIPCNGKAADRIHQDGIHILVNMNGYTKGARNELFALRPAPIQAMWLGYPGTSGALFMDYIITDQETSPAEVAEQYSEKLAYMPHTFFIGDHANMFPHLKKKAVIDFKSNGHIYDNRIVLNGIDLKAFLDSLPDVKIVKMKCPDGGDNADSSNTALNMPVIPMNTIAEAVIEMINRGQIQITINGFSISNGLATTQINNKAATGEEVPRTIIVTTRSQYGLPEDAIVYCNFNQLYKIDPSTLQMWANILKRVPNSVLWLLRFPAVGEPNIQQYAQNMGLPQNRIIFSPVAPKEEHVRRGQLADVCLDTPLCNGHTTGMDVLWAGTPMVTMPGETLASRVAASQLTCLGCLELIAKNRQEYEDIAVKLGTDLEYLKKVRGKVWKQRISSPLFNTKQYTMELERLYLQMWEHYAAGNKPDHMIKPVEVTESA

GST-OGT^T444E = biological target: T2, GST-OGT^T444E (UniProt O15294-3 1-1036, T444E); test: as above; conditions: both partners purified
T2 construct: OGT with T444E (mimics phosphorylation at Thr444); The printed Thr444 fits the 1036-residue isoform
T2 sequence (looked up): T1 sequence (looked up) with T444E

B1: NRF2: S103A (protein)
parent chain: MMDLELPPPGLPSQQDMDLIDILWRQDIDLGVSREVFDFSQRRKEYELEKQKKLEKERQEQLQKEQEKAFFAQLQLDEETGEFLPIQPAQHIQSETSGSANYSQVAHIPKSDALYFDDCMQLLAQTFPFVDDNEVSSATFQSLVPDIPGHIESPVFIATNQAQSPETSVAQVAPVDLDGMQQDIEQVWEELLSIPELQCLNIENDKLVETTMVPSPEAKLTEVDNYHFYSSIPSMEKEVGNCSPHFLNAFEDSFSSILSTEDPNQLTVNSLNSDATVNTDFGDEFYSAFIAEPSISNSMPSPATLSHSLSELLNGPIDVSDLSLCKAFNQNHPESTAEFNDSDSGISLNTSPSVASPEHSVESSSYGDTLLGLSDSEVEELDSAPGSVKQNGPKTPVHSSGDMVQPLSPSQGQSTHVHDAQCENTPEKELPVSPGHRKTPFTKDKHSSRLEAHLTRDELRAKALHIPFPVEKIINLPVVDFNEMMSKEQFNEAQLALIRDIRRRGKNKVAAQNCRKRKLENIVELEQDLDHLKDEKEKLLKEKGENDKSLHLLKKQLSTLYLEVFSMLRDEDGKPYSPSEYSLQQTRDGNVFLVPKSKKPDVKKN
In the case of B1, the “other: cisplatin resistance, IC50” value (cisplatin IC50 in cells) is reported as “decreases, 19.53 vs 31.83”, the “other: transcriptional activity” value [1] is reported as “decreases” and the expression_or_secretion [2] is reported as “decreases”. For the same binder, the “other: transcriptional activity” value [3] was “decreases”, the degradation_or_half_life [4] was “decreases” and the localisation_or_trafficking [5] was “decreases”. For the same binder, the “other: cisplatin resistance” value [6] was “decreases” and the degradation_or_half_life [7] was “decreases”.

B2: NRF2: S310A (protein)
parent chain: B1 parent chain
In the case of B2, the degradation_or_half_life [7] is reported as “no change”.

B3: NRF2: S111A (protein)
parent chain: B1 parent chain
In the case of B3, the degradation_or_half_life [7] is reported as “no change”.

B4: NRF2: OGT knockdown (protein)
parent chain: B1 parent chain
For B4, the expression_or_secretion [8] was “decreases”.

B5: His-NRF2 (natural protein, UniProt Q16236 1-605, looked up)
chain: B1 parent chain
notes: NRF2; Construct details are said to be in the Supplementary Information
B5: binds (GST-OGT^WT); binds (GST-OGT^T444E).

B6: NRF2: T350A (protein)
parent chain: B1 parent chain
With B6 the degradation_or_half_life [7] was “no change”.
